21 sequences from the DeepSol protein solubility set can be followed below.

A short description of the series: soluble on expression in E. coli; label from the status in PepcDB or PDB records.
“MAHHHHHHMADVDEWRGASFKQEEDHSEATTSLLEKINATTIPVLLRSTNKSLQDLVDELLTLEKIARLGGDALSTQRLAVEVIRVYRVQGDYAKMLLVLEMLMRKRGQTKMTQSAMIAECAVMISDASLPKESRREVLERVVHLTDSRIHVELEHARFAIDLAKLMESEGQKRAACDLLSGLHVETITNMPRAEKLDALNCLIRLCLELEDYEHTPLVSRRINHRALARAESREAKLTYFELMRHYYTQRKSYFNVARCWYETYLTETEEGAKLAALSSMAVHYLIAEHATPKALEDLAECTAFSPATYFAERNAAIQGITTKLQKQLEDIPQLQYLLQRFTSIELIREKVAREVETLCANHPQLAGHEDRQLLLRSRCSEHDLLVVSRFYRRLRLDRLAQLVGLTPEHTEEFLMMMVASKTLYAKMDRVDGLVVFEAKKNATEVINGWNEAVERSVALLDKASHLIVKERMLHNISAARAQQAVTL”: the “soluble on expression in E. coli” value is given as “not soluble”.

In the case of “MAHHHHHHMHRQTAALQGSTVPAFCELLHSRGEAWLGLLGAALALPVHNATADGPSPNSFATPPSCSPSDAPALSEACSRLLSTYFIAAKAQCVEGADASMMKTLVKLTLAHTEWRTRLAMALPQRTGHPTAASSPTRAVTALIDAVAAVGLCDATLHFFTAKTLLGECVFRLLESEAWPTWAPEYCSAPLPQQAEHGVSGAFVHGEGGEPPDWQRLYAEVSHRTRLVPASMHTTEPPSPAFSILQLAQDLQDHLERTVQQSHLALSFTEGGV”, the “soluble on expression in E. coli” value is given as “not soluble”.

Consider “MSLAEPKWLQDLKEEDYIKEDFDATGKSRYTVEGIDKNDPDWLNKAAKKVHAAEGDDYVKLDAGLLTVNQINWMLRRAFGELTYVDDNNQFLWYNRPTDPNKKMLAKRTPDQVGDTMGAVHPDIRNVIPEAKKVIYALRNKIDGHDEVKMPVPNGNRHKLILHDYKRIEDDEGNYVGTYEWVQDIYPFVKYFCETTGQKLVDDPDATTGATYKRDEVDTGTGASKHEEHVEKKQEETDTSSGASEYEGHHHHHH”, for which the “soluble on expression in E. coli” value is “soluble”.

As for “LFDLGHPLLNRIADSFVKAAGVGALQAVSREAYFTVVDGAGFDSNNVGPPSEITGNKKHRFPNLRGESSKSLDALVKNTGKESLQWGLAAGLYSGITYGMTEVRGGAHDWRNSAVAGALTGAAMAMTTSERTSHEQVVQSALTGAAISTAANLLSSVF”, the “soluble on expression in E. coli” value is “not soluble”.

For the sequence “MTVKCKAEESLTCSCVDVGTIIDGSDCSVEVHQFYSTEADANAVLERLTKKARNTESDPCEIKSEIVAVENGVQLNASFTFSCQAEAMIFELANR”, the “soluble on expression in E. coli” value is reported as “not soluble”.

As for “MANAASGMAVHDDCKLRFLELKAKRTHRFIVYKIEEKQKQVVVEKVGQPIQTYEEFAACLPADECRYAIYDFDFVTAENCQKSKIFFIAWCPDIAKVRSKMIYASSKDRFKRELDGIQVELQATDPTEMDLDVFRSRAN”, the “soluble on expression in E. coli” value is reported as “soluble”.

Take “MLGLKTSIIGRRVIYFQEITSTNEFAKTSYLEEGTVIVADKQTMGHGALNRKWESPEGGLWLSIVLSPKVPQKDLPKIVFLGAVGVVETLKEFSIDGRIKWPNDVLVNYKAIAGVLVEGKGDKIVLGIGLNVNNKVPNGATSMKLELGSEVPLLSVFRSLITNLDRLYLNFLKNPMDILNLVRDNMILGVRVKILGDGSFEGIAEDIDDFGRLIIRLDSGEVKKVIYGDVSLRFL”: the “soluble on expression in E. coli” value is listed as “soluble”.

For the sequence “MWEYLIHGEPTPRLKPFLEGVGKALEAQGFRHNPESEAPNLVLNAITPENPRPYRRRAQATFVASVLELPEFPQDPLRELYPYLVRALSNVLLAYVPGQGVKFLTLELGHYGEPEGKGFYERVAARLRPIACSRLVINNIFEPDLEPELWQGDELTESMYRAGKKLKEWDLLPAPFPIEEILPPEDLRHVKRLYGIGGLSYGNLSVRKDEKRFWMSASGVDKANLREIGRDILMVKDYDPERNAILLSVPPHVEPRRVSVDAIEHWMIYREHPEVGAILHVHAWMEGVPATAFNYPCGTYELAQAVADKVREAPDPARAVVGLKNHGLTITGRSLDEILERIEGKLIRTVPMA”, the “soluble on expression in E. coli” value is recorded as “soluble”.

On to “MATPYVPVPMPIGNSASSFTNNRNQRSSSFGSVSTSSTSSKGQLEDSAVGSLKQTNVQDQMDSASSMCGSPLIRTKFTGTDSSIEYSARPREAEEQHPEAVNWEDRPSTPTILGYEVMEERAKFTVYKILVKKSPEESWVVFRRYTDFSRLNDKLKEMFPGFRLALPPKRWFKDNYNAEFLEDRQLGLQAFLQNLVAHKDIANCLAVREFLCLDDPPGPFDSLEESRAFCETLEETNYHLQRELLEKQKEVESLKKLLGEKQLHIDALETRIRTLSLEPGASLYVSRAEGGQILRVEPSVLQVNRDVLDEESRADHKPHFNSREAGSVIAGIEVAQLAYNAEDD”, for which the “soluble on expression in E. coli” value is “soluble”.

On to “MGSDKIHHHHHHMRKLALPLVAFLTGGLAACSSSDVVESQGITVENCGSVVNFDSPPSHIALMKSAAVPTLDALGVLDRVVTKAGAFPAGYYDADLSERVTDIPTLSNKIDASGHVLISKEVVVAANPDIVFGETDTINRASMASSNIPVVEEPAFCGSIDGDVSFDDVWSQISTYGTIFDRSTEADAYIATLKERVSEVSSRVTDSGKTVAVLYPTIGGGVTYAYGRGSMANPLVAEAGLTNVFADQSERVFEVTAEELISRNPDYIIVLHSDGSPSDIVAEVGNLQGSSALTALSENKVLPILMNFAEPPTPLAVDGLEKIIDFVETHP”, for which the “soluble on expression in E. coli” value is listed as “not soluble”.

In the case of “MSLDYNNITEALQAFRTEKAYRHAPLRSCFFDMDGVLFDSMPAHARSWVEAAGECGIAAEPLDFYRWEGQKGSDTIKILFERGYGRLPTEKEIADMYGRKSQLFALYNSGNVIDDAPALVSDVCDRGLRIMLVTGSSQTDILQRLQRSYGDNFSPANMVTGADVHRGKPHPEPYLKALECVGMSPSEAFVVENAPLGVRAAVDAGIFTIAVNTGCLPDADLWDAGASLVLPSMAVLRSLLGELLTESLSSSAEGHHHHHH”, the “soluble on expression in E. coli” value is reported as “soluble”.

In the case of “MIHRIKDEFVNVYIIDRGDHLVLIDTGIESTCEKILKKIEELGKPLKTVIITHYHLDHTGSLKCVKDGTGAKVVAHEEEVKAIEEKTGVRVDVPVKDGDVVEGLKVFHMPGHTRGSICLLDEESGALFVGDLMVERDGKLYEVPQQYSEDPMMNRERIKELLNIEFKAIYPAHGEPVLENAKEKVKELVESFSKGETN”, the “soluble on expression in E. coli” value is on record as “soluble”.

“MAHHHHHHMIENLQNCKKLRLLELGYNKIRMIENIEHLTNLEELWLGKNKIEQINLPYLPKLKKLSVQHNRLTDICEKSIKNILCVEELYISYNKINHIIDTFKDLKHLKVFDLSYNEINNISICSYLKSLEELWLNNNNIDNLEMIKKLSTIENLKTLYLEKNKIQDNLKENYRKTIIHILPQLKQLDALPIPSSPTLQK”: the “soluble on expression in E. coli” value is recorded as “not soluble”.

For the sequence “MKVIETNFTDAKLLEPRLFGDDRGFFTESYNKKVLETLGVTHSFVQDNVSYSAEAGTIRGLHFQKNPKAQTKLIQVMQGAIYDVIVDLRKDSPTFKQWRGYILSADNHRQLLVPKGFAHGFCTLVPHTIVMYKVDEYYSADHDSGVLWNDKELAIPWPVTSPILSDKDRILPLLQECEDSF”, the “soluble on expression in E. coli” value is given as “not soluble”.

With “MSLSTHYHAHKPNVPIIMEDVFGWVREGNAFQVRVWLDDHEHDLNVGDDHAFSLLHWAAKGGHVAIAEMLLSRGARVNSTNMGDDTSLHLAAAHGHRQIVVKLLSRKADVNATNEHGMTPLHYACFWGYEQIAEDLISCGAAVNVCNKKGMTPLDVCQPMCKNTILEIAQEHGQSPNDRVPFKDTTWKGTKSRTRDATLSRYTGVDVSSLNLITKIAESHSGELWRGKWQGNDIVARILNVQEVTARISRDFQTEFPALRIFAHPNICAVLAAANQPPNLVIISQYMPFGSLYNVLHEQSSVVIDHGQAVRFALDIARGMSYLHSLDPMLLRFYLSSKHVVVDEELTAKLSMADTKFSFQEVGKAYSPAWMSPEALSRAPEDLNIRAADMWSFAILLWELNTREVPFSDLPPMECGMKIALEGLRVHIPPGIARNMNRLMNICMNEDPGRRPNFDQIIPILERMIL”, the “soluble on expression in E. coli” value is listed as “not soluble”.

Take “SEILISAVATDLISRFISSVTQNYRNHIHKEDDRRRLERILLRMHSVVEEAGGRHITNQGMILQLKGLVEGFYLGYYMLDKIKFQPPEYEVSHEIQSFALSACNSAKRFRFADAISKRTPVAFGSRSRTNLKDVVDGLETKIADMREFVILLGSHPRLPRQPYSTYLYIDNCMFGRRIEKEQVINFLLCNDPHDPYVSILPIIGPQRIGKKTLVQHACLDERVRDCFSHIFFFKEDDLKTGELSLNSKASQGKYLFVIEFIWDVDEAAWTKFQSYLQNMPATGIKVVVIGRTEDIAKFGTSQPIRVKRLSEEEYWYYFKALAFGSMDPDEHPKLASLAMQLSTEMNGSFLGATMFGELLRANPNTQFWKRILLFLRELARKHLTSSGLHPEDLFERNIPVDLSRIAVVDGQVQDFMVYDVRVAGPAEGELPKLTSRDILLGGDIPVEDKFDVLVWRSRIPPYCNYIVTYEKQKPRRMVGKRNTIYL”: the “soluble on expression in E. coli” value is “soluble”.

For the sequence “MGHHHHHHSHMSDAGMPSLSDPGMSLAAYALKHNIQYDVLPGANALTTAFCASGFLEGRFFYAGFLPHKSKERRLKIAKILNALAYLEEKTPVVFYESPHRLLETLKDLNDLAKGMHLFAAKELTKLHQQYYLGEVSQIIERLQQSTIQGEWVLVLLNEKKIEPCMGLSALLELDLPPKIKAKIEAVMTQKNAKELYFQRLLEEKNQ”, the “soluble on expression in E. coli” value is “not soluble”.

Take “MGRVAEKVIIIGNNFGNDKSAVTVLFTDNMEKENKAAVVGVDNTTIYCMAPRQAEGFNKITVKVNDQTVVADETFKYSVSENVSTIAGDFVQADGAGKDGSLAEATFGQMFGVACIDEQSGIVGQAWNNNSVRYISIDEDAVITIQSGPVVGKVAVSNDKTLAYGATINGANTVYVYKKSQAWVPSRLSDISSGTDVWAVALNGDNQWLYYVTANGRLGRIEVDNPTHNEILFEHNDFSGGPFAYIAYSAFEDCFYVTTDKNKILKVWVKEDGTHAYEQINQNNTGTTDGFLADEAKFQYLRGLTIDEDGNIFVCQGDNSHVIRKIAYDENMEKRYVTTVLGTSTVHGTDDGSPDIALFNGPQDISYDGNGGYWIAMRYEPALRKYSIELEHHHHHH”: the “soluble on expression in E. coli” value is on record as “soluble”.

For the sequence “AKIGLFYGTQTGVTQTIAESIQQEFGGESIVDLNDIANADASDLNAYDYLIIGCPTWGVGELQSDWEGIYDDLDSVNFQGKKVAYFGAGDQVGYSDNFQDAMGILEEKISSLGSQTVGYWPIEGYDFNESKAVRNNQFVGLAIDEDNQPDLTKNRIKTWVSQLKSEFGL”, the “soluble on expression in E. coli” value is given as “soluble”.

In the case of “MSLTIIKQVELHEFDFKAKNLGNLTGAESVGAFGYLKGSFSKIKKFAVVIITDDGVRGEYVTHWCASDATYAQSSILAPKLLGRNAEEREGIYDDFKRELRQFDHMGHGPIDIALWDWAGKKLDCSVNFLLGGFKKKLPAYASTYHGDRNGGLDSKEAFSDFAEYCYDLGYKAFKIHGWNDGNAKEEAENVLHVAKKVGHKMTLMLDPACELRTFADALYVGKACDEADYFWLEDPYRDSGVSAFAHKKLRNMIKTPILQTEHIRGLEPKADFLIAGGTDFLRMDPEYDMGITGGMKIAHLAESFGVDVEIHACGPAHRHMMSAIRNTNFYEVALLGPDCPNAIPPVYLCGYSDMIDCIDKNGFVEVPNGVGLGVKYDWEFISKNTTNKKIFSLEGHHHHHH”, the “soluble on expression in E. coli” value was “soluble”.

For the sequence “MGSDKIHHHHHHMLGKTAGGLYWLFRYLERSENTARLIETGFRIALTRPDGSDDEWRSVLQTAAVRDLYEGLYGEVEQAKAIDFLLRDRANPSSILSSISEARQNARLTRTALTREVWEAINDAYMNLKELLAHPVSAKTLPGTLATIRQHSALVRGAMHGTMLRTDIFDFCRLGTFIERADNTARILDVKYYVLLPSMTQVGSDLDNVQWETILRAVASHRSYRWLMGGETTPKGIADFLVFDTRMPRSLRFTVKKMASNLEYLAENYGQRHACHDQMDVLLARLKHGTIDEVFDDGLHEFLTEFLLDIGALGAQIESDYRFLG”, the “soluble on expression in E. coli” value is recorded as “not soluble”.
